{"source": "paper PMC8018780", "about": "“Two peptides targeting endothelial receptors are internalized into murine brain endothelial cells” (PLoS ONE, 2021)", "binders": {"B1": {"name": "GYR (peptide 2) (peptide)", "peptide": "GYRPVHNIRGHWAPGK-NH2"}}, "target": "recombinant mouse transferrin receptor (TfR) protein (mouse) (UniProt Q62351)", "sequence (Q62351 whole entry)": "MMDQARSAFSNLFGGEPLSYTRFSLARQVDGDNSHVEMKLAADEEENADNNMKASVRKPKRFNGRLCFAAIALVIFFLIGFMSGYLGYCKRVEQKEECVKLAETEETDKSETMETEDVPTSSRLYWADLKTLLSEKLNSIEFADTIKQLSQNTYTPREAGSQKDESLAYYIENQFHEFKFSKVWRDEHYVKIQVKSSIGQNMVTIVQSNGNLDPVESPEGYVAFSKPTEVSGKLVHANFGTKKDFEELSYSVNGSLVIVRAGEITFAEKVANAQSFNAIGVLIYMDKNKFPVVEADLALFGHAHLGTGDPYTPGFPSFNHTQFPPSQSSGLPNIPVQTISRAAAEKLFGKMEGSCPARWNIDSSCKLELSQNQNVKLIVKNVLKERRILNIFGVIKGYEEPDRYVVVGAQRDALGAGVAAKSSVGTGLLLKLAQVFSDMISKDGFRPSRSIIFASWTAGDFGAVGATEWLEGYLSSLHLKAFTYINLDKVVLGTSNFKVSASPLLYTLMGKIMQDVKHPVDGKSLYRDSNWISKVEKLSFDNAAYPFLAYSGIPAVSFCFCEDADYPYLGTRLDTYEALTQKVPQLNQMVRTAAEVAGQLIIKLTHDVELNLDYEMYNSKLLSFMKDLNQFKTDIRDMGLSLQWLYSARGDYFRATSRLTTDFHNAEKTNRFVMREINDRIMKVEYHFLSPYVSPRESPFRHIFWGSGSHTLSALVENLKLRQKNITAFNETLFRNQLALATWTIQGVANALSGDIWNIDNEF", "test": "SPR; Biacore 3000, CM5 chip, receptors immobilised by EDC/NHS coupling (TfR 58 fmol/mm^2, LRP-1 0.025 fmol/mm^2); peptides injected at 0.25-4 uM, 5 uL/min, 25°C, 10 mM HEPES, 150 mM NaCl, 1.5 mM CaCl2, 1 mM EGTA, 0.005% Tween 20, pH 7.4; Langmuir 1:1 model, global fit", "note": "Ends that are not written are not given here."}
{"binder": "B1", "values": [{"measurement": "Kd", "value": 1000, "unit": "µM"}]}
